Reference: the nanobody polyreactivity screen of Harvey et al. (2022)

Assay: yeast display, Sf9 membrane polyspecificity reagent, FACS + sequencing; frameworks hold sequencing errors
Outline: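 Nanobodies from a synthetic yeast display library (Saccharomyces cerevisiae BJ5465), induced 36–48 hours with galactose, were stained 1 hour at 4 °C with 10% biotinylated, detergent-solubilized Sf9 membrane reagent, enriched on streptavidin microbeads, then FACS-sorted. Anti-HA (expression) and streptavidin (reagent binding) fluorescence set low and high (top ~1%) gates. Polyreactivity labels come from the gate of origin. Genes were colony-PCR amplified, MiSeq 2 × 250 sequenced and filtered by CDR length.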

## QVQLVESGGGLVQAGGSLRLSCAASGRIFDYYAMGWYRQAPGKERELVARITSGGTTNYADSVKGRFTISRDNAKNTVYLQMNSLKPEDTAVYYCNAQDYSDPLQMDYWGQGTQVTVSS
  polyreactivity (PSR sort gate): low polyreactivity

## QVQLVESGGGLVQAGGSLRLSCAASGSTFGSYAMGWYRQAPGKERELVADISSRGASTYYADSVKGRFTISRDNAKNTVYFQMNSLKPEDTAVYYCARDVYIWYGYGYFPEYEYWGQGTQVTVSS
  polyreactivity (PSR sort gate): low polyreactivity

## QVQLVESGGGLVQAGGSLRLSCAASGFTFPRYAMGWYRQAPGKERELVAAIRRRGGSTYYADSVKGRFTISRDNAKNTVYLQMNSLKPEDTAVYYCATYNGVKGEASFDYWGQGTQVTVSS
  polyreactivity (PSR sort gate): high polyreactivity

## QVQLVESGAGLVQAGGSLRISCAASGRIFHYALGWYRQAPGKERELVAGISKRGGSTYYADSVKGRFTISRDNAKNTVYLQMNSLKPEDTAVYYCAAGRAYDGTKHDYWGQGTQVTVSS
  polyreactivity (PSR sort gate): high polyreactivity

## QVQLVESGGGLVQAGGSLRLSCAASGSTYYAYAMGWYRQAPGKEREFVAAISSGGGSTYYADSVKGRFTISRDNAKNTVYLQMNSLKPVDTAVYYCAAVLYYYWRGYGPRSNRYDYWGQGTQVTVSS
  polyreactivity (PSR sort gate): high polyreactivity

## QVQLQESGAGPVLAGGSLRLSCAASGTIYVRLDMGWYRQAPGKEREFVATIGSGSSTYYADSVKGSFTISRDNVKNTVYLQMNSLNPEVTAVYYCAVSAAEQSRHYYWAQGTQVTVSS
  polyreactivity (PSR sort gate): low polyreactivity

## QVQHVDSGGGLVQAGGSLRLSCAASGSSFGTYDMGWYRQAPGKERELVARISGGGSTYYADSVKGRLTISRDNAKNTVYFQMNRLKPEDTAVYYCNVRKWAYWSHAFIYTYWGQGTQVTVSS
  polyreactivity (PSR sort gate): high polyreactivity

## QVQLVESGGGLVQAGGSLRLSCAASGSIFSRYAMGWYRTAPGKERELVAAINKSGGSTYYADSVKGRFTISRDNAKNTVYLQMNSLKPEDTAVYYCNAVYYWYKGDYWGQGTQVTVSS
  polyreactivity (PSR sort gate): high polyreactivity

## QVHLGESGGGLVQAGGSLRLSCAASGSIFYGYAMGWYRHAPGKERELVAAITRDGSTNYADSVKGRFTISRDNAKNTVYLQMNSLKPEDTAVYYCAADTRSRRLSLVRRDYWGQGTQVTVSS
  polyreactivity (PSR sort gate): high polyreactivity

## QVQLVESGGGLVQAGGSLRLSCAASGSTFVTNAMVWYRQAPGKERELVAAIDYDSGSTYYADSVKGRFTISRDNAKNTVYLQMNSLIPEDTAVYYCNADEQSEEEWEYYYSYDYWGQGTQVTVSS
  polyreactivity (PSR sort gate): high polyreactivity

## QVQLEESGGGLVQAGGILRLSCAASGSMFVAYTMGWYRQEPGKERELVAAISRGGSTNYADSVKGRFTISRDNAKTTVYLQMNSLKPEDTAVYYCAAKVWDGQLLYYWGQGTQVTVSS
  polyreactivity (PSR sort gate): low polyreactivity

## QVQLVESGGGLVQAGGSLRLSCAASGSTFVLYAMGWDRQAPGKERELVAAISGGATTTYADSVKGRFTISRDNAKNTVYLQMNSLKPEDTAVYSCAADFSTFVVSGAAMDYWGQGTQVTVSS
  polyreactivity (PSR sort gate): low polyreactivity

## QVQLVESGGGLVQAGGSLRLSCDASGRLFYRNAMGWYRQAPGKDRELVASITSAGRTYYADSVKGRFTISRDNAKNTVYLQMNSLKPEDTAVYYCAVRGYAKSFSNAKYYYWGQGTQVTVSS
  polyreactivity (PSR sort gate): low polyreactivity

## QVQLVESGGGLVQAGGSLRLSCAASGYTFLPNAMGWYRQAPGKESEFVAAISYSGGRTYYADSVKGRFTISRDNAKNTVYLLMNSLKPEDTAVYYCARDRRYWAVLSDYWGQGTQVTVSS
  polyreactivity (PSR sort gate): low polyreactivity

## QVQLVESGGCLVQAGGSLRLICAASGRTFIAKAMGWYRQAPGKERELVAVITLNGGSTYYADSVKGRFTISRDNAKSTVYLQMNSLKPEDTAVYYCAAGRYYNLRATHGYWGQGTQVTVSS
  polyreactivity (PSR sort gate): low polyreactivity

## QVQLVESGGGLVQAGGSLRLICAASGYTFLDYARGWYRQAPGKERELVASITSSGGSTYYADSVKGRFTISRDNAKNTVFLQMMSLIPEDTAVYYCASDGCIYYYFTLRYGYWGQGTQVTVSS
  polyreactivity (PSR sort gate): low polyreactivity

## QVHLVESGGGLFQAGGSLRLIFAASGLIFYKNAMGWYRQAPGKERELVAISSSGGSTYYADSVKGRFTISRDNAKNSVYLQMHSLKPEDSAVYYCAARSRRYGGGYWGQGTQVTVSS
  polyreactivity (PSR sort gate): high polyreactivity
